B1: MIAB168 (antibody, V domains shown)
VH: EVQLLESGGGLVQPGGSLRLSCAASGFTFSDFWMHWVRQAPGKGLEWISYISGDSGYTNYADSVKGRFTISRDNSKNTLYLQMNSLRAEDTAVYYCARDRPYYYYMDVWGKGTTVTVSS
VL: DIQMTQSPSSLSASVGDRVTITCRASQSVSRSLLWYQQKPGKAPKLLIYAASSLQSGVPSRFSGSGSGTDFTLTISSLQPEDFATYYCQQYKSYPVTFGQGTKVEIK
B2: MIAB172 (antibody, V domains shown)
VH: B1 VH with Y102T
VL: B1 VL with L34A
B3: MIAB134 (antibody, V domains shown)
VH: B1 VH with D31A
VL: B1 VL with L34A

Positions count from the first letter of the chain named.

Insulin, sequence (P01308 25-54, chain 1 of 2): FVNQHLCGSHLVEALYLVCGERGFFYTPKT
Insulin, sequence (P01308 90-110, chain 2 of 2): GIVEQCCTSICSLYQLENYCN

This assay addresses Insulin. The experiment in a line: polyreactivity ELISA on insulin coat, 100 nM. (In general: An ELISA detects its analyte on a solid surface through an enzyme-linked reagent.)
The molecule B1 came in with an Insulin polyreactivity score of 8.35.
The result for B2 reads 3.79.
The result for B3 reads 25.5.

Source of the values: patent publication US20240010722A1.
